Experimental data taken from publication PMC12804970, “Molecular basis of XPF-ERCC1 targeting to SLX4-dependent DNA repair pathways” (Nature Communications, 2025).

Target: T1, His6-XPF (xeroderma pigmentosum complementation group F), wild type (human, UniProt Q92889 1-916)
T1 construct: XPF (ERCC4), human; Always co-expressed with ERCC1; also called ERCC4; XPF^WT; source: Sf9 (small-scale assays: Sf9 or Hi5), baculovirus co-expression with ERCC1; purified as complexes (Ni-NTA or Strep-Tactin, Capto HiRes Q, Superdex 200) or in insect cell lysate; not shown: His6, N-terminal, kept
Assay: co-purification (Strep-Tactin, ion exchange, SEC); co-infection of Sf9 with His6-XPF-ERCC1(-SLX4IP) and Twin-Strep-SLX4 fragment viruses; capture by the Twin-Strep tag on SLX4 on Strep-Tactin, 250 mM KCl, 40 mM HEPES-KOH pH 7.9, then Capto HiRes Q and Superdex 200; SDS-PAGE
Conditions: partners not purified

B1: Twin-Strep-SLX4^330-555 (domain or fragment, human, UniProt Q8IY92 330-555, looked up)
chain: VPQIPECPICGKPFLTLKSRTSHLKQCAVKMEVGPQLLLQAVRLQTAQPEGSSSPPMFSFSDHSRGLKRRGPTSKKEPRKRRKVDEAPSEDLLVAMALSRSEMEPGAAVPALRLESAFSERIRPEAENKSRKKKPPVSPPLLLVQDSETTGRQIEDRVALLLSEEVELSSTPPLPASRILKEGWERAGQCPPPPERKQSFLWEGSALTGAWAMEDFYTARLVPPLV
notes: from clone HsCD00821809 (DNASU) in vector 438-Sn; source: Sf9 (small-scale assays: Sf9 or Hi5), baculovirus co-infection with His6-XPF-ERCC1(-SLX4IP); purified as complexes (Strep-Tactin, Capto HiRes Q, Superdex 200) or in insect cell lysate; not shown: twin-Strep, N-terminal, kept
B1: binds.
